According to patent US20260015399A1 (Boehringer Ingelheim, published 2026):
One block for each binder: values may come before it. *1 amine or outer side, *2 acyl side, *3 side chain or, on linkers, in order; H or OH if unused. Side-chain parts run from the residue outwards. The star is where a group is joined. C18 diacid = O=C(O)CCCCCCCCCCCCCCCCC(=O)*; γGlu = O=C(O)[C@H](CCC(=O)[*:2])N[*:1]; Isovaleryl = CC(C)CC(=O)*; Ahx = NCCCCCC(=O)O

Assays:
human NPY4 receptor = human NPY4 receptor (human, UniProt P50391 1-375); assay: cell-based or functional assay
human NPY4 receptor, sequence (P50391 whole entry): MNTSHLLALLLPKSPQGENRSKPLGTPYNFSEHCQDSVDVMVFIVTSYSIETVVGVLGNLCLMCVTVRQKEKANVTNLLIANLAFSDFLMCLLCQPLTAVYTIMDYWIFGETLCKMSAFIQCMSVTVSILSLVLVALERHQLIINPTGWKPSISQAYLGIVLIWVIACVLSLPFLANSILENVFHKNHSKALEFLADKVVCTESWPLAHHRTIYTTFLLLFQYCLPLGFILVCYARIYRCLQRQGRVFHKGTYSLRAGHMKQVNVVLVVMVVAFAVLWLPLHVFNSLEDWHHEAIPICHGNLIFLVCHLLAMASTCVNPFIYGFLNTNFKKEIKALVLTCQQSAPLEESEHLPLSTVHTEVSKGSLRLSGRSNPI

human NPY1 receptor = biological target: T1, human NPY1 receptor (human, UniProt P25929 1-384); assay: cell-based or functional assay
T1 sequence (looked up): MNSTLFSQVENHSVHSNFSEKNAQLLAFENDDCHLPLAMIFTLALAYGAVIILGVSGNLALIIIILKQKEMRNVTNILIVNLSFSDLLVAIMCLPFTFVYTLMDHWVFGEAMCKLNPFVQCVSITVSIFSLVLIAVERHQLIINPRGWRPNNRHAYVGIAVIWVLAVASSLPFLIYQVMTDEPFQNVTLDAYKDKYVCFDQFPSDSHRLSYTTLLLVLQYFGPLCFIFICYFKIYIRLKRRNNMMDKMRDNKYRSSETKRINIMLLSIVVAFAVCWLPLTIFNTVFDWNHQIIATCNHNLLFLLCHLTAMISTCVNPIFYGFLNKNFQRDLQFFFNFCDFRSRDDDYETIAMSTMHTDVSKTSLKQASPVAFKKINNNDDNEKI

human NPY2 receptor [1] = biological target: T2, human NPY2 receptor (human, UniProt P49146 1-381); assay: cell-based or functional assay
T2 sequence (looked up): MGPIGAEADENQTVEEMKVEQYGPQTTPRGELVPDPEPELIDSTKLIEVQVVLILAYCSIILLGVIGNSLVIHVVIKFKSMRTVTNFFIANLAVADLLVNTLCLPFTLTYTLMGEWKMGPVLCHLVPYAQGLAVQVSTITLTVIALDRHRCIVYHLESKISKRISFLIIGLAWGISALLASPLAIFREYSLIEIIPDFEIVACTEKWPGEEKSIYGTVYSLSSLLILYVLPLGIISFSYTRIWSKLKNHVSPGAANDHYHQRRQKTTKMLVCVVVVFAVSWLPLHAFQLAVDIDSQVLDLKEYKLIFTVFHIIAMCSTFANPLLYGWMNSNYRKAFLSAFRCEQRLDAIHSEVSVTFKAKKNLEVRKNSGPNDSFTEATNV

human NPY5 receptor = biological target: T3, human NPY5 receptor (human, UniProt Q15761 1-445); assay: cell-based or functional assay
T3 sequence (looked up): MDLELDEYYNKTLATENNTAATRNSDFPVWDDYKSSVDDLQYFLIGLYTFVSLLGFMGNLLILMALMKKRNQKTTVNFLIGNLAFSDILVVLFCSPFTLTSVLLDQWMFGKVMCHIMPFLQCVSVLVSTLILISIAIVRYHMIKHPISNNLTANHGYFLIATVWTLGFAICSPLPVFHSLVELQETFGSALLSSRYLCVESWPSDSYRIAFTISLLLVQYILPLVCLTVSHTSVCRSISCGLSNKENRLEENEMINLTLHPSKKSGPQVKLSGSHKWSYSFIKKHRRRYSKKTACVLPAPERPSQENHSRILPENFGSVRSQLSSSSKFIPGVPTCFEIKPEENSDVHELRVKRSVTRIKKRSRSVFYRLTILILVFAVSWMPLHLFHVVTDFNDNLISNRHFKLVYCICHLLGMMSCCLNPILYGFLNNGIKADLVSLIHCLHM

human NPY2 receptor [2] = biological target: T2, human NPY2 receptor; assay: RLB: displacement of 125I-PYY(1-36) from hNPY2R membranes

B2: Compound 193 (peptide)
peptide: Isovaleryl-APEK([Ahx-γGlu-C18 diacid])PEEEASPEEIQRYYVSLRHYYNWLTRQRY-NH2
SMILES: CC[C@H](C)[C@H](NC(=O)[C@H](CCC(=O)O)NC(=O)[C@H](CCC(=O)O)NC(=O)[C@@H]1CCCN1C(=O)[C@H](CO)NC(=O)[C@H](C)NC(=O)[C@H](CCC(=O)O)NC(=O)[C@H](CCC(=O)O)NC(=O)[C@H](CCC(=O)O)NC(=O)[C@@H]1CCCN1C(=O)[C@H](CCCCNC(=O)CCCCCNC(=O)CC[C@H](NC(=O)CCCCCCCCCCCCCCCCC(=O)O)C(=O)O)NC(=O)[C@H](CCC(=O)O)NC(=O)[C@@H]1CCCN1C(=O)[C@H](C)NC(=O)CC(C)C)C(=O)N[C@@H](CCC(N)=O)C(=O)N[C@@H](CCCNC(=N)N)C(=O)N[C@@H](Cc1ccc(O)cc1)C(=O)N[C@@H](Cc1ccc(O)cc1)C(=O)N[C@H](C(=O)N[C@@H](CO)C(=O)N[C@@H](CC(C)C)C(=O)N[C@@H](CCCNC(=N)N)C(=O)N[C@@H](Cc1c[nH]cn1)C(=O)N[C@@H](Cc1ccc(O)cc1)C(=O)N[C@@H](Cc1ccc(O)cc1)C(=O)N[C@@H](CC(N)=O)C(=O)N[C@@H](Cc1c[nH]c2ccccc12)C(=O)N[C@@H](CC(C)C)C(=O)N[C@H](C(=O)N[C@@H](CCCNC(=N)N)C(=O)N[C@@H](CCC(N)=O)C(=O)N[C@@H](CCCNC(=N)N)C(=O)N[C@@H](Cc1ccc(O)cc1)C(N)=O)[C@@H](C)O)C(C)C
- EC50, HTRF cAMP Gi assay (human NPY4 receptor): > 5 µM
- EC50, HTRF cAMP Gi assay (human NPY1 receptor): > 5 µM
- EC50, HTRF cAMP Gi assay (human NPY2 receptor [1]): 0.331 nM
- EC50, HTRF cAMP Gi assay (human NPY5 receptor): > 5 µM
- Ki (human NPY2 receptor [2]): 3.42 nM

B4: Compound 136 (peptide)
peptide: Isovaleryl-APEK([Ahx-γGlu-C18 diacid])PEADATPEELQRYYVALRHYYNWLTRQRY-NH2
SMILES: CC(C)CC(=O)N[C@@H](C)C(=O)N1CCC[C@H]1C(=O)N[C@@H](CCC(=O)O)C(=O)N[C@@H](CCCCNC(=O)CCCCCNC(=O)CC[C@H](NC(=O)CCCCCCCCCCCCCCCCC(=O)O)C(=O)O)C(=O)N1CCC[C@H]1C(=O)N[C@@H](CCC(=O)O)C(=O)N[C@@H](C)C(=O)N[C@@H](CC(=O)O)C(=O)N[C@@H](C)C(=O)N[C@H](C(=O)N1CCC[C@H]1C(=O)N[C@@H](CCC(=O)O)C(=O)N[C@@H](CCC(=O)O)C(=O)N[C@@H](CC(C)C)C(=O)N[C@@H](CCC(N)=O)C(=O)N[C@@H](CCCNC(=N)N)C(=O)N[C@@H](Cc1ccc(O)cc1)C(=O)N[C@@H](Cc1ccc(O)cc1)C(=O)N[C@H](C(=O)N[C@@H](C)C(=O)N[C@@H](CC(C)C)C(=O)N[C@@H](CCCNC(=N)N)C(=O)N[C@@H](Cc1c[nH]cn1)C(=O)N[C@@H](Cc1ccc(O)cc1)C(=O)N[C@@H](Cc1ccc(O)cc1)C(=O)N[C@@H](CC(N)=O)C(=O)N[C@@H](Cc1c[nH]c2ccccc12)C(=O)N[C@@H](CC(C)C)C(=O)N[C@H](C(=O)N[C@@H](CCCNC(=N)N)C(=O)N[C@@H](CCC(N)=O)C(=O)N[C@@H](CCCNC(=N)N)C(=O)N[C@@H](Cc1ccc(O)cc1)C(N)=O)[C@@H](C)O)C(C)C)[C@@H](C)O
- EC50, HTRF cAMP Gi assay (human NPY4 receptor): > 5 µM
- EC50, HTRF cAMP Gi assay (human NPY1 receptor): > 5 µM
- EC50, HTRF cAMP Gi assay (human NPY2 receptor [1]): 0.138 nM
- EC50, HTRF cAMP Gi assay (human NPY5 receptor): > 5 µM
- Ki (human NPY2 receptor [2]): 1.07 nM

B5: Compound 150 (peptide)
peptide: Isovaleryl-APEK([Ahx-γGlu-C18 diacid])PEEAASPEEIQRYYVSLRHYYNWLTRQRY-NH2
SMILES: CC[C@H](C)[C@H](NC(=O)[C@H](CCC(=O)O)NC(=O)[C@H](CCC(=O)O)NC(=O)[C@@H]1CCCN1C(=O)[C@H](CO)NC(=O)[C@H](C)NC(=O)[C@H](C)NC(=O)[C@H](CCC(=O)O)NC(=O)[C@H](CCC(=O)O)NC(=O)[C@@H]1CCCN1C(=O)[C@H](CCCCNC(=O)CCCCCNC(=O)CC[C@H](NC(=O)CCCCCCCCCCCCCCCCC(=O)O)C(=O)O)NC(=O)[C@H](CCC(=O)O)NC(=O)[C@@H]1CCCN1C(=O)[C@H](C)NC(=O)CC(C)C)C(=O)N[C@@H](CCC(N)=O)C(=O)N[C@@H](CCCNC(=N)N)C(=O)N[C@@H](Cc1ccc(O)cc1)C(=O)N[C@@H](Cc1ccc(O)cc1)C(=O)N[C@H](C(=O)N[C@@H](CO)C(=O)N[C@@H](CC(C)C)C(=O)N[C@@H](CCCNC(=N)N)C(=O)N[C@@H](Cc1c[nH]cn1)C(=O)N[C@@H](Cc1ccc(O)cc1)C(=O)N[C@@H](Cc1ccc(O)cc1)C(=O)N[C@@H](CC(N)=O)C(=O)N[C@@H](Cc1c[nH]c2ccccc12)C(=O)N[C@@H](CC(C)C)C(=O)N[C@H](C(=O)N[C@@H](CCCNC(=N)N)C(=O)N[C@@H](CCC(N)=O)C(=O)N[C@@H](CCCNC(=N)N)C(=O)N[C@@H](Cc1ccc(O)cc1)C(N)=O)[C@@H](C)O)C(C)C
- EC50, HTRF cAMP Gi assay (human NPY4 receptor): > 5 µM
- EC50, HTRF cAMP Gi assay (human NPY1 receptor): > 5 µM
- EC50, HTRF cAMP Gi assay (human NPY2 receptor [1]): 0.243 nM
- EC50, HTRF cAMP Gi assay (human NPY5 receptor): > 5 µM
- Ki (human NPY2 receptor [2]): 2.18 nM

Continued by falling Ki (human NPY2 receptor [2]), values first:

- EC50, HTRF cAMP Gi assay (human NPY4 receptor): > 5 µM
- EC50, HTRF cAMP Gi assay (human NPY1 receptor): > 5 µM
- EC50, HTRF cAMP Gi assay (human NPY2 receptor [1]): 0.344 nM
- EC50, HTRF cAMP Gi assay (human NPY5 receptor): > 5 µM
- Ki (human NPY2 receptor [2]): 2.91 nM
B1: Compound 128 (peptide)
peptide: Isovaleryl-APEK([Ahx-γGlu-C18 diacid])PEEAATPEELQRYYVSLRHYYNWLTRQRY-NH2
SMILES: CC(C)CC(=O)N[C@@H](C)C(=O)N1CCC[C@H]1C(=O)N[C@@H](CCC(=O)O)C(=O)N[C@@H](CCCCNC(=O)CCCCCNC(=O)CC[C@H](NC(=O)CCCCCCCCCCCCCCCCC(=O)O)C(=O)O)C(=O)N1CCC[C@H]1C(=O)N[C@@H](CCC(=O)O)C(=O)N[C@@H](CCC(=O)O)C(=O)N[C@@H](C)C(=O)N[C@@H](C)C(=O)N[C@H](C(=O)N1CCC[C@H]1C(=O)N[C@@H](CCC(=O)O)C(=O)N[C@@H](CCC(=O)O)C(=O)N[C@@H](CC(C)C)C(=O)N[C@@H](CCC(N)=O)C(=O)N[C@@H](CCCNC(=N)N)C(=O)N[C@@H](Cc1ccc(O)cc1)C(=O)N[C@@H](Cc1ccc(O)cc1)C(=O)N[C@H](C(=O)N[C@@H](CO)C(=O)N[C@@H](CC(C)C)C(=O)N[C@@H](CCCNC(=N)N)C(=O)N[C@@H](Cc1c[nH]cn1)C(=O)N[C@@H](Cc1ccc(O)cc1)C(=O)N[C@@H](Cc1ccc(O)cc1)C(=O)N[C@@H](CC(N)=O)C(=O)N[C@@H](Cc1c[nH]c2ccccc12)C(=O)N[C@@H](CC(C)C)C(=O)N[C@H](C(=O)N[C@@H](CCCNC(=N)N)C(=O)N[C@@H](CCC(N)=O)C(=O)N[C@@H](CCCNC(=N)N)C(=O)N[C@@H](Cc1ccc(O)cc1)C(N)=O)[C@@H](C)O)C(C)C)[C@@H](C)O

- EC50, HTRF cAMP Gi assay (human NPY4 receptor): > 5 µM
- EC50, HTRF cAMP Gi assay (human NPY1 receptor): > 5 µM
- EC50, HTRF cAMP Gi assay (human NPY2 receptor [1]): 0.232 nM
- EC50, HTRF cAMP Gi assay (human NPY5 receptor): > 5 µM
- Ki (human NPY2 receptor [2]): 0.64 nM
B3: Compound 184 (peptide)
peptide: Isovaleryl-APEK([Ahx-γGlu-C18 diacid])PEADATPEEIQRYYVALRHYYNWLTRQRY-NH2
SMILES: CC[C@H](C)[C@H](NC(=O)[C@H](CCC(=O)O)NC(=O)[C@H](CCC(=O)O)NC(=O)[C@@H]1CCCN1C(=O)[C@@H](NC(=O)[C@H](C)NC(=O)[C@H](CC(=O)O)NC(=O)[C@H](C)NC(=O)[C@H](CCC(=O)O)NC(=O)[C@@H]1CCCN1C(=O)[C@H](CCCCNC(=O)CCCCCNC(=O)CC[C@H](NC(=O)CCCCCCCCCCCCCCCCC(=O)O)C(=O)O)NC(=O)[C@H](CCC(=O)O)NC(=O)[C@@H]1CCCN1C(=O)[C@H](C)NC(=O)CC(C)C)[C@@H](C)O)C(=O)N[C@@H](CCC(N)=O)C(=O)N[C@@H](CCCNC(=N)N)C(=O)N[C@@H](Cc1ccc(O)cc1)C(=O)N[C@@H](Cc1ccc(O)cc1)C(=O)N[C@H](C(=O)N[C@@H](C)C(=O)N[C@@H](CC(C)C)C(=O)N[C@@H](CCCNC(=N)N)C(=O)N[C@@H](Cc1c[nH]cn1)C(=O)N[C@@H](Cc1ccc(O)cc1)C(=O)N[C@@H](Cc1ccc(O)cc1)C(=O)N[C@@H](CC(N)=O)C(=O)N[C@@H](Cc1c[nH]c2ccccc12)C(=O)N[C@@H](CC(C)C)C(=O)N[C@H](C(=O)N[C@@H](CCCNC(=N)N)C(=O)N[C@@H](CCC(N)=O)C(=O)N[C@@H](CCCNC(=N)N)C(=O)N[C@@H](Cc1ccc(O)cc1)C(N)=O)[C@@H](C)O)C(C)C
